One substance from PMC5717070 can be followed below.

The target in the assay is Solanum tuberosum aspartic protease plant-specific insert (saposin-like domain), recombinant (Solanum tuberosum). Nature of the assay: AUC; sedimentation equilibrium, 26-28 uM PSI, 27 mM sodium phosphate pH 3.0, 140 mM NaCl, 20 °C, single ideal species model; monomer to dimer.

Usually stoichiometry N stands for a count of units in the complex or per binding partner. For “Solanum tuberosum aspartic protease plant-specific insert (saposin-like domain), recombinant (domain or fragment)”, the stoichiometry N is 2.
